The results in this text go back to article doi:10.1101/2025.02.22.639503 (bioRxiv, 2025).

Sequences and labels used below:
B1: HSV-1 terminase subunit pUL15 (His-pUL15) (natural protein)
chain: MFGQQLASDVQQYLERLEKQRQLKVGADEASAGLTMGGDALRVPFLDFATATPKRHQTVVPGVGTLHDCCEHSPLFSAVARRLLFNSLVPAQLKGRDFGGDHTAKLEFLAPELVRAVARLRFKECAPADVVPQRNAYYSVLNTFQALHRSEAFRQLVHFVRDFAQLLKTSFRASSLTETTGPPKKRAKVDVATHGRTYGTLELFQKMILMHATYFLAAVLLGDHAEQVNTFLRLVFEIPLFSDAAVRHFRQRATVFLVPRRHGKTWFLVPLIALSLASFRGIKIGYTAHIRKATEPVFEEIDACLRGWFGSARVDHVKGETISFSFPDGSRSTIVFASSHNTNGIRGQDFNLLFVDEANFIRPDAVQTIMGFLNQANCKIIFVSSTNTGKASTSFLYNLRGAADELLNVVTYICDDHMPRVVTHTNATACSCYILNKPVFITMDGAVRRTADLFLADSFMQEIIGGQARETGDDRPVLTKSAGERFLLYRPSTTTNSGLMAPDLYVYVDPAFTANTRASGTGVAVVGRYRDDYIIFALEHFFLRALTGSAPADIARCVVHSLTQVLALHPGAFRGVRVAVEGNSSQDSAVAIATHVHTEMHRLLASEGADAGSGPELLFYHCEPPGSAVLYPFFLLNKQKTPAFEHFIKKFNSGGVMASQEIVSATVRLQTDPVEYLLEQLNNLTETVSPNTDVRTYSGKRNGASDDLMVAVIMAIYLAAQAGPPHTFAPITRVS

Where “and” joins values, the source holds several entries; their conditions need not be identical. Equal entries are not always repeated.

Holding throughout (assay): native MS
The target of series [1] is Alcohol Dehydrogenase from Saccharomyces cerevisiae (Saccharomyces cerevisiae) (UniProt P00330).
The target of series [2] is HSV-1 terminase-associated protein pUL32 (Strep-pUL32) (herpes simplex virus 1 (HSV-1)) (UniProt P10216).
The target of series [3] is KSHV (HHV-8) pORF68 (TwinStrep-ORF68) (human herpesvirus 8 (KSHV HHV-8)).
Series [4] concerns the target T1, HSV-1 terminase subunit pUL28 (herpes simplex virus 1 (HSV-1, strain …, UniProt P10212 1-785)).
T1 sequence: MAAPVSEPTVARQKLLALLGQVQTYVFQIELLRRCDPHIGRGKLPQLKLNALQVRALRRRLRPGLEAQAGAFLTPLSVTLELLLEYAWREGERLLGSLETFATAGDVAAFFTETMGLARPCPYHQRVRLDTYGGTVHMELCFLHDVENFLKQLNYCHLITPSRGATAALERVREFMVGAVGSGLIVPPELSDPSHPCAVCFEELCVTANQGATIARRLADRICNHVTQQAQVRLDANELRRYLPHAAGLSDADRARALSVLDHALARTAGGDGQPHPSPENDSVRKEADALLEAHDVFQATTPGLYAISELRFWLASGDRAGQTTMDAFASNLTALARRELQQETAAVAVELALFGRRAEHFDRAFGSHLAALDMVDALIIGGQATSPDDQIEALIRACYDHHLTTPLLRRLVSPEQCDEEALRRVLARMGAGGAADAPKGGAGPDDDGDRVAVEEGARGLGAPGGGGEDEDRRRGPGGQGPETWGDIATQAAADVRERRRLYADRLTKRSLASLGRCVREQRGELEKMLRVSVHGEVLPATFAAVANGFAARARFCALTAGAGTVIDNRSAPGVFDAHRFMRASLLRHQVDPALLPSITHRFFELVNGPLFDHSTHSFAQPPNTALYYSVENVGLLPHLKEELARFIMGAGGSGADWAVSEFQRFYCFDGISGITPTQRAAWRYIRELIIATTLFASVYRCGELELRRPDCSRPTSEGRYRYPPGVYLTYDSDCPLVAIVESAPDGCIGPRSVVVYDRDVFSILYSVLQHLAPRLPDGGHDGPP

The series “native MS” concerns the molecule itself.
In series [5] the target is B1.

What is called stoichiometry N is a count of units in the complex or per binding partner.

“Alcohol Dehydrogenase from Saccharomyces cerevisiae (from UniProt P00330 1-348) (enzyme)” displayed a stoichiometry N in series [1] of 4.

The molecule “HSV-1 terminase-associated protein pUL32 (Strep-pUL32) (from UniProt P10216 1-596) (natural protein)” showed a stoichiometry N in series [2] of 3.

In the case of “KSHV (HHV-8) pORF68 (TwinStrep-ORF68) (natural protein)”, in series [3], the stoichiometry N is 10.

For B1, the binding result in series [4] is “binds”.

B2: HSV-1 terminase heterotrimer (pUL15, pUL28, pUL33) (complex)
chain 1: MFGQQLASDVQQYLERLEKQRQLKVGADEASAGLTMGGDALRVPFLDFATATPKRHQTVVPGVGTLHDCCEHSPLFSAVARRLLFNSLVPAQLKGRDFGGDHTAKLEFLAPELVRAVARLRFKECAPADVVPQRNAYYSVLNTFQALHRSEAFRQLVHFVRDFAQLLKTSFRASSLTETTGPPKKRAKVDVATHGRTYGTLELFQKMILMHATYFLAAVLLGDHAEQVNTFLRLVFEIPLFSDAAVRHFRQRATVFLVPRRHGKTWFLVPLIALSLASFRGIKIGYTAHIRKATEPVFEEIDACLRGWFGSARVDHVKGETISFSFPDGSRSTIVFASSHNTNGIRGQDFNLLFVDEANFIRPDAVQTIMGFLNQANCKIIFVSSTNTGKASTSFLYNLRGAADELLNVVTYICDDHMPRVVTHTNATACSCYILNKPVFITMDGAVRRTADLFLADSFMQEIIGGQARETGDDRPVLTKSAGERFLLYRPSTTTNSGLMAPDLYVYVDPAFTANTRASGTGVAVVGRYRDDYIIFALEHFFLRALTGSAPADIARCVVHSLTQVLALHPGAFRGVRVAVEGNSSQDSAVAIATHVHTEMHRLLASEGADAGSGPELLFYHCEPPGSAVLYPFFLLNKQKTPAFEHFIKKFNSGGVMASQEIVSATVRLQTDPVEYLLEQLNNLTETVSPNTDVRTYSGKRNGASDDLMVAVIMAIYLAAQAGPPHTFAPITRVS
chain 2: MAAPVSEPTVARQKLLALLGQVQTYVFQIELLRRCDPHIGRGKLPQLKLNALQVRALRRRLRPGLEAQAGAFLTPLSVTLELLLEYAWREGERLLGSLETFATAGDVAAFFTETMGLARPCPYHQRVRLDTYGGTVHMELCFLHDVENFLKQLNYCHLITPSRGATAALERVREFMVGAVGSGLIVPPELSDPSHPCAVCFEELCVTANQGATIARRLADRICNHVTQQAQVRLDANELRRYLPHAAGLSDADRARALSVLDHALARTAGGDGQPHPSPENDSVRKEADALLEAHDVFQATTPGLYAISELRFWLASGDRAGQTTMDAFASNLTALARRELQQETAAVAVELALFGRRAEHFDRAFGSHLAALDMVDALIIGGQATSPDDQIEALIRACYDHHLTTPLLRRLVSPEQCDEEALRRVLARMGAGGAADAPKGGAGPDDDGDRVAVEEGARGLGAPGGGGEDEDRRRGPGGQGPETWGDIATQAAADVRERRRLYADRLTKRSLASLGRCVREQRGELEKMLRVSVHGEVLPATFAAVANGFAARARFCALTAGAGTVIDNRSAPGVFDAHRFMRASLLRHQVDPALLPSITHRFFELVNGPLFDHSTHSFAQPPNTALYYSVENVGLLPHLKEELARFIMGAGGSGADWAVSEFQRFYCFDGISGITPTQRAAWRYIRELIIATTLFASVYRCGELELRRPDCSRPTSEGRYRYPPGVYLTYDSDCPLVAIVESAPDGCIGPRSVVVYDRDVFSILYSVLQHLAPRLPDGGHDGPP
chain 3: MAGREGRTRQRTLRDTIPDCALRSQTLESLDARYVSRDGAHDAAVWFEDMTPAELEVVFPTTDAKLNYLSRTQRLASLLTYAGPIKAPDDAAAPQTPDTACVHGELLAAKRERFAAVINRFLDLHQILRG
B2: the “stoichiometry N” value in the series “native MS” was 2 and 3.

B3: HSV-1 terminase subunit pUL33 (natural protein)
chain: MAGREGRTRQRTLRDTIPDCALRSQTLESLDARYVSRDGAHDAAVWFEDMTPAELEVVFPTTDAKLNYLSRTQRLASLLTYAGPIKAPDDAAAPQTPDTACVHGELLAAKRERFAAVINRFLDLHQILRG
For B3, the binding result in series [5] is recorded as “binds”.
